In patent publication US20240360223A1 (DRAGONFLY THERAPEUTICS, published 2024):
Residue numbers refer to the chain shown, from its start. In names and notes the source's numbering stands.

B1: AB0681 (bispecific antibody, V domains shown)
VH: EVQLVQSGGGVVQPGRSLRLSCAASGEWFSSYGMHWVRQAPGKCLEWVAVIWYDGSNKYYGDSVKGRFTISRDNSKNTLYLQMNSLRDEDTAVYYCARRFTHLRGWIIEDYGMDVWGQGTTVTVSS
VL: not shown
notes: also called AB0681-001
B2: Ianalumab-F3′ (bispecific antibody, human IgG1, kappa)
chain: DIVLTQSPATLSLSPGERATLSCRASQFILPEYLSWYQQKPGQAPRLLIYGSSSRATGVPARFSGSGSGTDFTLTISSLEPEDFAVYYCQQFYSSPLTFGCGTKVEIKGGGGSGGGGSGGGGSGGGGSQVQLQQSGPGLVKPSQTLSLTCAISGDSVSSNSAAWGWIRQSPGRCLEWLGRIYYRSKWYNSYAVSVKSRITINPDTSKNQFSLQLNSVTPEDTAVYYCARYQWVPKIGVFDSWGQGTLVTVSSASDKTHTCPPCPAPELLGGPSVFLFPPKPKDTLMISRTPEVTCVVVDVSHEDPEVKFNWYVDGVEVHNAKTKPREEQYNSTYRVVSVLTVLHQDWLNGKEYKCKVSNKALPAPIEKTISKAKGQPREPRVYTLPPCRDELTKNQVSLTCLVKGFYPSDIAVEWESNGQPENNYKTTPPVLVSDGSFTLYSKLTVDKSRWQQGNVFSCSVMHEALHNHYTQKSLSLSPG
heavy: EVQLVESGGGLVKPGGSLRLSCAASGFTFSSYSMNWVRQAPGKGLEWVSSISSSSSYIYYADSVKGRFTISRDNAKNSLYLQMNSLRAEDTAVYYCARGAPIGAAAGWFDPWGQGTLVTVSSASTKGPSVFPLAPSSKSTSGGTAALGCLVKDYFPEPVTVSWNSGALTSGVHTFPAVLQSSGLYSLSSVVTVPSSSLGTQTYICNVNHKPSNTKVDKKVEPKSCDKTHTCPPCPAPELLGGPSVFLFPPKPKDTLMISRTPEVTCVVVDVSHEDPEVKFNWYVDGVEVHNAKTKPREEQYNSTYRVVSVLTVLHQDWLNGKEYKCKVSNKALPAPIEKTISKAKGQPREPQVCTLPPSRDELTENQVSLTCLVKGFYPSDIAVEWESNGQPENNYKTTPPVLDSDGSFFLYSWLTVDKSRWQQGNVFSCSVMHEALHNHYTQKSLSLSPG
light: DIQMTQSPSSVSASVGDRVTITCRASQGISSWLAWYQQKPGKAPKLLIYAASSLQSGVPSRFSGSGSGTDFTLTISSLQPEDFATYYCQQGVSFPRTFGGGTKVEIKRTVAAPSVFIFPPSDEQLKSGTASVVCLLNNFYPREAKVQWKVDNALQSGNSQESVTEQDSKDSTYSLSSTLTLSKADYEKHKVYACEVTHQGLSSPVTKSFNRGEC
notes: F3′ TriNKET: BAFF-R scFv-Fc (chain S), NKG2D Fab heavy (chain H) and light (chain L); no ADCC-enhancing mutations; also called ianalumab-F3′ TriNKET; Tool-F3′
B3: AB1080scFv (scFv, V domains shown)
VH: B1 VH with E27F, W28T, G55A, I107Y, M113L
VL: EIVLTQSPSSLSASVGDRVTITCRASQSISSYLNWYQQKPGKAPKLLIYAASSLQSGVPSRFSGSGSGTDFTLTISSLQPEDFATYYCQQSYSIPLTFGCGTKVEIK
notes: scFv on yeast; also called AB1080 (yeast clone)
B4: AB1081scFv (scFv, V domains shown)
VH: B1 VH with E27F, W28A, G55E, K76R, H102N, M113L
VL: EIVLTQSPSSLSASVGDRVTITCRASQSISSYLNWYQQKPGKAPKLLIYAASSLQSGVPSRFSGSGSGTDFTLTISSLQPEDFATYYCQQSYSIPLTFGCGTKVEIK
notes: scFv on yeast; also called AB1081 (yeast clone)
B5: AB1084scFv (scFv, V domains shown)
VH: B1 VH with E27F, W28T, S31M, G55A, H102R, I107Y, M113L
VL: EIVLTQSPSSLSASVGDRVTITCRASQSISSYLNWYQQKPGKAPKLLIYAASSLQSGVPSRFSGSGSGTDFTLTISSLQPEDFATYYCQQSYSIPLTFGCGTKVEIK
notes: scFv on yeast; also called AB1084 (yeast clone)
B6: hCOH-2-mAb (antibody, V domains shown)
VH: EVQLQESGPGLVKPSQTLSLTCTVSGDSITSGYWNWIRQHPGKGLEYIGYISYSGSTYYNPSLKSRVTISRDTSKNQYSLKLSSVTAADTAVYYCASPNYPFYAMDYWGQGTLVTVSS
VL: DIVLTQSPATLSLSPGERATLSCRASESVDNYGISFMNWFQQKPGQAPRLLIYAASNRATGIPARFSGSGSGTDFTLTISSLEPEDFAVYYCQQSKEVPWTFGGGTKVEIK
notes: Parental monoclonal antibody; also called Humanized mAb hCOH-2
B7: Hu9.1-73-mAb (antibody, V domains shown)
VH: EVQLVESGGGLVQPGGSLRLSCAASGLPMAGFYTSWVRQAPGKGLEWVGFIRDKANGYTTEYNPSVKGRFTISADTSKNTAYLQMNSLRAEDTAVYYCAQVRRALDYWGQGTLVTVSS
VL: DIQMTQSPSSLSASVGDRVTITCKSSQSLLYSSNQNNYLAWYQQKPGKAPKLLIYWAQHLDSGVPSRFSGSGSGTDFTLTISSLQPEDFATYYCQQYYTYPYTFGQGTKVEIK
notes: Parental monoclonal antibody; also called Genentech Hu9.1-73 parental mAb
B8: Ianalumab-2-Fab (bispecific antibody, human IgG1, kappa)
heavy 1: not shown
light 1: DIVLTQSPATLSLSPGERATLSCRASQFILPEYLSWYQQKPGQAPRLLIYGSSSRATGVPARFSGSGSGTDFTLTISSLEPEDFAVYYCQQFYSSPLTFGQGTKVEIKRTVAAPSVFIFPPSDEQLKSGTASVVCLLNNFYPREAKVQWKVDNALQSGNSQESVTEQDSKDSTYSLSSTLTLSKADYEKHKVYACEVTHQGLSSPVTKSFNRGEC
heavy 2: not shown
light 2: B2 light
notes: 2-Fab TriNKET: BAFF-R Fab arm and NKG2D (A49MI) Fab arm, F405L/K409R Fc
B9: Hu9.1-73-F3′ (bispecific antibody, human IgG1, kappa)
chain: DIQMTQSPSSLSASVGDRVTITCKSSQSLLYSSNQNNYLAWYQQKPGKAPKLLIYWAQHLDSGVPSRFSGSGSGTDFTLTISSLQPEDFATYYCQQYYTYPYTFGCGTKVEIKGGGGSGGGGSGGGGSGGGGSEVQLVESGGGLVQPGGSLRLSCAASGLPMAGFYTSWVRQAPGKCLEWVGFIRDKANGYTTEYNPSVKGRFTISADTSKNTAYLQMNSLRAEDTAVYYCAQVRRALDYWGQGTLVTVSSASDKTHTCPPCPAPELLGGPSVFLFPPKPKDTLMISRTPEVTCVVVDVSHEDPEVKFNWYVDGVEVHNAKTKPREEQYNSTYRVVSVLTVLHQDWLNGKEYKCKVSNKALPAPIEKTISKAKGQPREPRVYTLPPCRDELTKNQVSLTCLVKGFYPSDIAVEWESNGQPENNYKTTPPVLVSDGSFTLYSKLTVDKSRWQQGNVFSCSVMHEALHNHYTQKSLSLSPG
heavy: B2 heavy
light: B2 light
notes: F3′ TriNKET; also called Hu9.1-73-F3′ TriNKET
B10: Hu9.1-73-2-Fab (bispecific antibody, human IgG1, kappa)
heavy 1: not shown
light 1: DIQMTQSPSSLSASVGDRVTITCKSSQSLLYSSNQNNYLAWYQQKPGKAPKLLIYWAQHLDSGVPSRFSGSGSGTDFTLTISSLQPEDFATYYCQQYYTYPYTFGQGTKVEIKRTVAAPSVFIFPPSDEQLKSGTASVVCLLNNFYPREAKVQWKVDNALQSGNSQESVTEQDSKDSTYSLSSTLTLSKADYEKHKVYACEVTHQGLSSPVTKSFNRGEC
heavy 2: not shown
light 2: B2 light
notes: 2-Fab TriNKET
B11: hCOH-2-F3′ (bispecific antibody, human IgG1, kappa)
chain: DIVLTQSPATLSLSPGERATLSCRASESVDNYGISFMNWFQQKPGQAPRLLIYAASNRATGIPARFSGSGSGTDFTLTISSLEPEDFAVYYCQQSKEVPWTFGCGTKVEIKGGGGSGGGGSGGGGSGGGGSEVQLQESGPGLVKPSQTLSLTCTVSGDSITSGYWNWIRQHPGKCLEYIGYISYSGSTYYNPSLKSRVTISRDTSKNQYSLKLSSVTAADTAVYYCASPNYPFYAMDYWGQGTLVTVSSASDKTHTCPPCPAPELLGGPSVFLFPPKPKDTLMISRTPEVTCVVVDVSHEDPEVKFNWYVDGVEVHNAKTKPREEQYNSTYRVVSVLTVLHQDWLNGKEYKCKVSNKALPAPIEKTISKAKGQPREPRVYTLPPCRDELTKNQVSLTCLVKGFYPSDIAVEWESNGQPENNYKTTPPVLVSDGSFTLYSKLTVDKSRWQQGNVFSCSVMHEALHNHYTQKSLSLSPG
heavy: B2 heavy
light: B2 light
notes: F3′ TriNKET
B12: hCOH-2-2-Fab (bispecific antibody, human IgG1, kappa)
heavy 1: not shown
light 1: DIVLTQSPATLSLSPGERATLSCRASESVDNYGISFMNWFQQKPGQAPRLLIYAASNRATGIPARFSGSGSGTDFTLTISSLEPEDFAVYYCQQSKEVPWTFGGGTKVEIKRTVAAPSVFIFPPSDEQLKSGTASVVCLLNNFYPREAKVQWKVDNALQSGNSQESVTEQDSKDSTYSLSSTLTLSKADYEKHKVYACEVTHQGLSSPVTKSFNRGEC
heavy 2: not shown
light 2: B2 light
notes: 2-Fab TriNKET

Each binder was assayed against T1, cynomolgus monkey BAFF-R expressed on cells (cynomolgus monkey) (assay: flow cytometry, cyno BAFF-R CHO cells).
T1 construct: whole, on cells; also called cBAFF-R; cynoBAFF-R

Going from B1 to B2, the EC50 falls from 5.6 nM to 2.9 nM (1.9-fold). The second is the more potent here.

What follows are binders tested against T2, human BAFF-R expressed on cells (human, UniProt Q96RJ3 1-184) (assay: flow cytometry, human BAFF-R CHO cells).
T2 construct: Cell surface BAFF-R, endogenous on B cell lines and primary B cells or overexpressed on isogenic CHO cells; also called hBAFF-R; hBAFF-R-CHO

B1 and B2 are within 1.5-fold of each other in EC50: 5.1 nM for the first, 4.3 nM for the second.

The binders below were run against T3, hBAFF-R-hFc-His fusion protein (human, UniProt Q96RJ3 1-78, biotinylated in the yeast display assays) (assay: yeast display flow cytometry after challenge: 100 pM hBAFFR-Fc biotin for 1hr at RT, then 1 mM nonbiotinylated hBAFFR-Fc (as printed on the sheet)).
T3 construct: the whole entry is named; also called hBAFFR-Fc; biotinylated hBAFF-R-hFc-His

Compared with B3, B4 is higher in “Iana (percent of events in the drawn gate named Iana)” value: 23.4 for the first, 27.2 for the second.

With B5 the “Iana (percent of events in the drawn gate named Iana)” value was 7.4.

The binders below were run against T2, human BAFF-R expressed on cells (assay: flow cytometry, RAJI cells).
Method: The BAFF-R positive human B lymphoblastoid RAJI cell line was used to assess TriNKET binding to cell surface BAFF-R. Certain BAFF-R TriNKETs in the 2-Fab and F3′ formats, as described in the “exemplary multispecific binding proteins” subsection above, were diluted and incubated with Raji cells. Binding patterns of TriNKETs and parental monoclonal antibodies were detected using a fluorophore conjugated anti-human IgG secondary antibody. The cells were then incubated with a fluorophore conjugated anti-human IgG secondary antibody and were analyzed by flow cytometry. The mean fluorescence intensity (MFI) values were normalized to secondary antibody only controls to obtain fold over background (FOB) values.

First: B6
Second: B7
The EC50 of the first is 8.8-fold lower: 0.043 nM for the first, 0.379 nM for the second.

First: B2
Second: B8
The EC50 of the first is 3.1-fold higher: 0.361 nM for the first, 0.115 nM for the second.

B9 and B10 are within 1.5-fold of each other in EC50: 0.765 nM for the first, 1.05 nM for the second.

B11 and B12 are within 1.5-fold of each other in EC50: 0.893 nM for the first, 0.942 nM for the second.
